Laboratory results reported in PMC9482650, “Quantitative fragmentomics allow affinity mapping of interactomes” (Nature Communications, 2022).

B1: SFPQ (protein, UniProt P23246 1-707, looked up)
Splicing factor, proline- and …: MSRDRFRSRGGGGGGFHRRGGGGGRGGLHDFRSPPPGMGLNQNRGPMGPGPGQSGPKPPIPPPPPHQQQQQPPPQQPPPQQPPPHQPPPHPQPHQQQQPPPPPQDSSKPVVAQGPGPAPGVGSAPPASSSAPPATPPTSGAPPGSGPGPTPTPPPAVTSAPPGAPPPTPPSSGVPTTPPQAGGPPPPPAAVPGPGPGPKQGPGPGGPKGGKMPGGPKPGGGPGLSTPGGHPKPPHRGGGEPRGGRQHHPPYHQQHHQGPPPGGPGGRSEEKISDSEGFKANLSLLRRPGEKTYTQRCRLFVGNLPADITEDEFKRLFAKYGEPGEVFINKGKGFGFIKLESRALAEIAKAELDDTPMRGRQLRVRFATHAAALSVRNLSPYVSNELLEEAFSQFGPIERAVVIVDDRGRSTGKGIVEFASKPAARKAFERCSEGVFLLTTTPRPVIVEPLEQLDDEDGLPEKLAQKNPMYQKERETPPRFAQHGTFEYEYSQRWKSLDEMEKQQREQVEKNMKDAKDKLESEMEDAYHEHQANLLRQDLMRRQEELRRMEELHNQEMQKRKEMQLRQEEERRRREEEMMIRQREMEEQMRRQREESYSRMGYMDPRERDMRMGGGGAMNMGDPYGSGGQKFPPLGGGGGIGYEANPGVPPATMSGSMMGSDMRTERFGQGGAGPVGGQGPRGMGPGTPAGYGRGREEYEGPNKKPRF
B2: FUS (protein, UniProt P35637 1-526, looked up)
RNA-binding protein FUS: MASNDYTQQATQSYGAYPTQPGQGYSQQSSQPYGQQSYSGYSQSTDTSGYGQSSYSSYGQSQNTGYGTQSTPQGYGSTGGYGSSQSSQSSYGQQSSYPGYGQQPAPSSTSGSYGSSSQSSSYGQPQSGSYSQQPSYGGQQQSYGQQQSYNPPQGYGQQNQYNSSSGGGGGGGGGGNYGQDQSSMSSGGGSGGGYGNQDQSGGGGSGGYGQQDRGGRGRGGSGGGGGGGGGGYNRSSGGYEPRGRGGGRGGRGGMGGSDRGGFNKFGGPRDQGSRHDSEQDNSDNNTIFVQGLGENVTIESVADYFKQIGIIKTNKKTGQPMINLYTDRETGKLKGEATVSFDDPPSAKAAIDWFDGKEFSGNPIKVSFATRRADFNRGGGNGRGGRGRGGPMGRGGYGGGGSGGGGRGGFPSGGGGGGGQQRAGDWKCPNPTCENMNFSWRNECNQCKAPKPDGPGGGPGGSHMGGNYGDDRRGGRGGYDRGGYRGRGGDRGGFRGGRGGGDRGGFGPGKMDSRGEHRQDRRERPY
B3: HSPD1 (protein, UniProt P10809 27-573, looked up)
60 kDa heat shock protein, …: AKDVKFGADARALMLQGVDLLADAVAVTMGPKGRTVIIEQSWGSPKVTKDGVTVAKSIDLKDKYKNIGAKLVQDVANNTNEEAGDGTTTATVLARSIAKEGFEKISKGANPVEIRRGVMLAVDAVIAELKKQSKPVTTPEEIAQVATISANGDKEIGNIISDAMKKVGRKGVITVKDGKTLNDELEIIEGMKFDRGYISPYFINTSKGQKCEFQDAYVLLSEKKISSIQSIVPALEIANAHRKPLVIIAEDVDGEALSTLVLNRLKVGLQVVAVKAPGFGDNRKNQLKDMAIATGGAVFGEEGLTLNLEDVQPHDLGKVGEVIVTKDDAMLLKGKGDKAQIEKRIQEIIEQLDVTTSEYEKEKLNERLAKLSDGVAVLKVGGTSDVEVNEKKDRVTDALNATRAAVEEGIVLGGGCALLRCIPALDSLTPANEDQKIGIEIIKRTLKIPAMTIAKNAGVEGSLIVEKIMQSSSEVGYDAMAGDFVNMVEKGIIDPTKVVRTALLDAAGVASLLTTAEVVVTEIPKEEKDPGMGAMGGMGGGMGGGMF
B4: CAV1 (protein, UniProt Q03135 2-178, looked up)
Caveolin-1: SGGKYVDSEGHLYTVPIREQGNIYKPNNKAMADELSEKQVYDAHTKEIDLVNRDPKHLNDDVVKIDFEDVIAEPEGTHSFDGIWKASFTTFTVTKYWFYRLLSALFGIPMALIWGIYFAILSFLHIWAVVPCIKSFLIEIQCISRVYSIYVHTVCDPLFEAVGKIFSNVRINLQKEI
B5: CAVIN1 (protein, UniProt Q6NZI2 1-390, looked up)
Caveolae-associated protein 1: MEDPTLYIVERPLPGYPDAEAPEPSSAGAQAAEEPSGAGSEELIKSDQVNGVLVLSLLDKIIGAVDQIQLTQAQLEERQAEMEGAVQSIQGELSKLGKAHATTSNTVSKLLEKVRKVSVNVKTVRGSLERQAGQIKKLEVNEAELLRRRNFKVMIYQDEVKLPAKLSISKSLKESEALPEKEGEELGEGERPEEDAAALELSSDEAVEVEEVIEESRAERIKRSGLRRVDDFKKAFSKEKMEKTKVRTRENLEKTRLKTKENLEKTRHTLEKRMNKLGTRLVPAERREKLKTSRDKLRKSFTPDHVVYARSKTAVYKVPPFTFHVKKIREGQVEVLKATEMVEVGADDDEGGAERGEAGDLRRGSSPDVHALLEITEESDAVLVDKSDSD
B6: DARS1 (protein, UniProt P14868 1-501, looked up)
Aspartate--tRNA ligase, …: MPSASASRKSQEKPREIMDAAEDYAKERYGISSMIQSQEKPDRVLVRVRDLTIQKADEVVWVRARVHTSRAKGKQCFLVLRQQQFNVQALVAVGDHASKQMVKFAANINKESIVDVEGVVRKVNQKIGSCTQQDVELHVQKIYVISLAEPRLPLQLDDAVRPEAEGEEEGRATVNQDTRLDNRVIDLRTSTSQAVFRLQSGICHLFRETLINKGFVEIQTPKIISAASEGGANVFTVSYFKNNAYLAQSPQLYKQMCICADFEKVFSIGPVFRAEDSNTHRHLTEFVGLDIEMAFNYHYHEVMEEIADTMVQIFKGLQERFQTEIQTVNKQFPCEPFKFLEPTLRLEYCEALAMLREAGVEMGDEDDLSTPNEKLLGHLVKEKYDTDFYILDKYPLAVRPFYTMPDPRNPKQSNSYDMFMRGEEILSGAQRIHDPQLLTERALHHGIDLEKIKAYIDSFRFGAPPHAGGGIGLERVTMLFLGLHNVRQTSMFPRDPKRLTP

Experiments:
HeLa cell extract preys = assay: PDZ-AP-MS, biotinylated MBP-PDZ baits; format: binding, human; conditions: for Ratio: fold enrichment of prey; for Difference: log2 enrichment of prey
Method: (§1) For PDZ-AP-MS experiments, PDZ domains were cloned as His6-AviTag-MBP-PDZ constructs. For co-expression with BirA, E. coli BL21(DE3) cells were co-transformed with His6-AviTag-MBP, or His6-AviTag-MBP-PDZ-coding and PET21a-BirA (Addgene #20857) plasmids. Simultaneously to IPTG induction, 50 µM biotin was added to the media. After cell harvesting, the lysis buffer was also supplemented with 50 µM biotin. Otherwise, expression and double affinity purification was identical as previously described in details.
(§2) For PBM-AP-MS experiments, 30 μl streptavidin resin was mixed with biotin or peptide at 50–60 μM concentration in 6–6.5 resin volume for 60 min to achieve resin saturation. For PDZ-AP-MS experiments, 30 μl streptavidin resin was mixed with biotinylated MBP or MBP-PDZ at 40-50 μM concentration in >1000× resin volume for 60 min to achieve resin saturation. After saturation, resins were washed a single time (ten resin volume, holdup buffer), and were depleted with biotin (1 mM biotin, 5–10 resin volume, 10 min). Finally, resins were washed two times. 0.5 ml 2 mg/ml cell lysate was added to the dry resin (1 mg total input) and were incubated at 4 °C for 2 h. Then, the beads were washed three times with 10 resin volume buffer containing: 50 mM TRIS pH 8.5, 150 mM NaCl, 1% TritonX-100, 10× complete EDTA-free protease inhibitor cocktail, 2 mM EDTA, 1 mM TCEP. Then, the beads were washed two times with ten resin volume buffer containing: 50 mM TRIS pH 8.5, 150 mM NaCl, 1 mM TCEP. Finally, captured protein was eluted from the resin in two steps and the eluted fractions were pooled. For each elution the beads were incubated for 30 min with three resin volume buffer containing: 20 mM TRIS pH8.5, 100 mM NaCl, 500 μM TCEP, 8 M Urea. Between each step, the beads were separated by mild centrifugation and the supernatant was removed by gentle pipetting.
(§3) The samples were precipitated with TCA 20% overnight at 4 °C and centrifuged at 14,000 rpm for 10 min at 4 °C. The protein pellets were washed twice with 1 mL cold acetone and air dried. The protein extracts were solubilized in urea 8 M, reduced with 5 mM TCEP for 30 min, and alkylated with 10 mM iodoacetamide for 30 min in the dark. Double digestion was performed at 37 °C with 500 ng endoproteinase Lys-C for 4 h, followed by fourfold dilution and an overnight digestion with 500 ng trypsin. Peptide mixtures were then desalted on C18 spin-column and dried on Speed-Vacuum.
(§4) Samples were analyzed using an Ultimate 3000 nano-RSLC (Thermo Scientific, San Jose California) coupled in line with a LTQ-Orbitrap ELITE mass spectrometer via a nano-electrospray ionization source (Thermo Scientific, San Jose California). Peptide mixtures were injected in 0.1% TFA on a C18 Acclaim PepMap100 trap-column (75 µm ID × 2 cm, 3 µm, 100 Å, Thermo Fisher Scientific) for 3 min at 5 µL/min with 2% ACN, 0.1% FA in H2O and then separated on a C18 Accucore nano-column (75 µm ID × 50 cm, 2.6 µm, 150 Å, Thermo Fisher Scientific) at 220 nl/min and 38 °C with a 90 min linear gradient from 5% to 30% buffer B (A: 0.1% FA in H2O/B: 99% ACN, 0.1% FA in H2O), regeneration at 5% B. The mass spectrometer was operated in positive ionization mode, in data-dependent mode with survey scans from m/z 350–1500 acquired in the Orbitrap at a resolution of 120,000 at m/z 400. The 20 most intense peaks from survey scans were selected for further fragmentation in the Linear Ion Trap with an isolation window of 2.0 Da and were fragmented by CID with normalized collision energy of 35%. (TOP20CID method) Unassigned and single charged states were excluded from fragmentation. The Ion Target Value for the survey scans (in the Orbitrap) and the MS2 mode (in the Linear Ion Trap) were set to 1E6 and 5E3 respectively and the maximum injection time was set to 100 ms for both scan modes. Dynamic exclusion was set to 20 s after one repeat count with mass width at ±10 ppm. […]

HaCat cell extract preys = assay: PDZ-AP-MS, biotinylated MBP-PDZ baits; format: binding, human; conditions: for Difference log2: enrichment of prey; for Ratio SNX27/MBP: bait SNX27 PDZ
Method: as §1, §2, §3, §4

[1] = bait SCRIB_2 PDZ (biotinylated MBP-PDZ) vs MBP control
[2] = bait SCRIB_2 PDZ vs MBP control

Row | Molecule | Difference (HeLa cell extract preys; [1]) | Ratio (HeLa cell extract preys; [2]) | Difference log2 (HaCat cell extract preys; bait SNX27 PDZ vs MBP) | Ratio SNX27/MBP (HaCat cell extract preys; fold change of prey) | further results
1 | B1 | 5.287 | 39.0318 | – | – | Ratio (HeLa cell extract preys; bait DLG1_1 PDZ vs MBP control): 33.0339; Difference (HeLa cell extract preys; bait DLG1_1 PDZ vs MBP control): 5.046
2 | B2 | 4.68 | 25.6321 | – | – | –
3 | B3 | – | – | – | – | Difference log2 (HaCat cell extract preys; bait DLG1_1 PDZ vs MBP): 6.29; Ratio DLG1_1/MBP (HaCat cell extract preys; bait DLG1_1 PDZ, fold change of prey): 78.233; Ratio (HeLa cell extract preys; bait TX1BP3 PDZ vs MBP control): 104.688; Difference (HeLa cell extract preys; bait TX1BP3 PDZ vs MBP control): 6.71
4 | B4 | – | – | 8.5897 | 385.263 | –
5 | B5 | – | – | 7.364 | 164.68 | –
6 | B6 | – | – | – | – | Difference log2 (HaCat cell extract preys; bait SCRIB_2 PDZ vs MBP): 3.605; Ratio SCRIB_2/MBP (HaCat cell extract preys; bait SCRIB_2 PDZ, fold change of prey): 12.1719
